As a reminder, the Kd is the equilibrium constant for the complex coming apart.

Data set [1] has as its target yeast mitochondrial RNA polymerase (scMtRNAP) WT;MTF1 (yeast mitochondrial transcription factor) (Saccharomyces cerevisiae?;Saccharomyces …, UniProt P13433;P14908 1-1351;1-341, |). Kind of data set: EMSA. A general note: A gel shift assay detects complexes by their altered migration in electrophoresis.
Data set [2] deals with T1, yeast MtRNAP with residues 1-358 deleted (ΔN1) (yeast, UniProt P13433 359-1351).
T1 sequence (looked up): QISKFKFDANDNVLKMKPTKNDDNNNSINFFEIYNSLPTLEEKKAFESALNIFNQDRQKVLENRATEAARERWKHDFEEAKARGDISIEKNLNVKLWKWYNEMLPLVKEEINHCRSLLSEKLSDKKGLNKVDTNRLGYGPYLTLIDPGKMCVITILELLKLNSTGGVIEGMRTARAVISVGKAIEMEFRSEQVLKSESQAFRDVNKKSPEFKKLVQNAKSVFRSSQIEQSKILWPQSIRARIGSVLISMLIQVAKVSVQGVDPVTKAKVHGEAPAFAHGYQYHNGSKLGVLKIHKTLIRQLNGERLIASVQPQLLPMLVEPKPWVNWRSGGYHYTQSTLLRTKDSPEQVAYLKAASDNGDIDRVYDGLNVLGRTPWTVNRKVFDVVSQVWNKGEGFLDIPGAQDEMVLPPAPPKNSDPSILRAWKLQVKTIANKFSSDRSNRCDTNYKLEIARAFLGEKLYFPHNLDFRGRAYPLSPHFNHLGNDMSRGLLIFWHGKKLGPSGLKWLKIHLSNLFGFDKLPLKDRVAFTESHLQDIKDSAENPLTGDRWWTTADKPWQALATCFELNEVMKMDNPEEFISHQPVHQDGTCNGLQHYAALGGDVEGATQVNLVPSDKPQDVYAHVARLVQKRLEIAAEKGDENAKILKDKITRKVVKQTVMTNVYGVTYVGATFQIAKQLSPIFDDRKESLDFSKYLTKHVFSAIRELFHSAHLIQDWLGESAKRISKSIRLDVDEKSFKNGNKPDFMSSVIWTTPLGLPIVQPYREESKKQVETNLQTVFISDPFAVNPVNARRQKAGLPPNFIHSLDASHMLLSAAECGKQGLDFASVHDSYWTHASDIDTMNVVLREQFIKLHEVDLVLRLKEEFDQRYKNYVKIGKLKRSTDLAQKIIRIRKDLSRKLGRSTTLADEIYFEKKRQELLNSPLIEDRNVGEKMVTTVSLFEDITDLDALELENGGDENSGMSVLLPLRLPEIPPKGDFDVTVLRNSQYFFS
Kind of data set: ultrafiltration retention.

For data set [3], the target named is T2, yeast MtRNAP with residues 1-264 deleted (ΔN2) (yeast, UniProt P13433 265-1351).
T2 sequence (looked up): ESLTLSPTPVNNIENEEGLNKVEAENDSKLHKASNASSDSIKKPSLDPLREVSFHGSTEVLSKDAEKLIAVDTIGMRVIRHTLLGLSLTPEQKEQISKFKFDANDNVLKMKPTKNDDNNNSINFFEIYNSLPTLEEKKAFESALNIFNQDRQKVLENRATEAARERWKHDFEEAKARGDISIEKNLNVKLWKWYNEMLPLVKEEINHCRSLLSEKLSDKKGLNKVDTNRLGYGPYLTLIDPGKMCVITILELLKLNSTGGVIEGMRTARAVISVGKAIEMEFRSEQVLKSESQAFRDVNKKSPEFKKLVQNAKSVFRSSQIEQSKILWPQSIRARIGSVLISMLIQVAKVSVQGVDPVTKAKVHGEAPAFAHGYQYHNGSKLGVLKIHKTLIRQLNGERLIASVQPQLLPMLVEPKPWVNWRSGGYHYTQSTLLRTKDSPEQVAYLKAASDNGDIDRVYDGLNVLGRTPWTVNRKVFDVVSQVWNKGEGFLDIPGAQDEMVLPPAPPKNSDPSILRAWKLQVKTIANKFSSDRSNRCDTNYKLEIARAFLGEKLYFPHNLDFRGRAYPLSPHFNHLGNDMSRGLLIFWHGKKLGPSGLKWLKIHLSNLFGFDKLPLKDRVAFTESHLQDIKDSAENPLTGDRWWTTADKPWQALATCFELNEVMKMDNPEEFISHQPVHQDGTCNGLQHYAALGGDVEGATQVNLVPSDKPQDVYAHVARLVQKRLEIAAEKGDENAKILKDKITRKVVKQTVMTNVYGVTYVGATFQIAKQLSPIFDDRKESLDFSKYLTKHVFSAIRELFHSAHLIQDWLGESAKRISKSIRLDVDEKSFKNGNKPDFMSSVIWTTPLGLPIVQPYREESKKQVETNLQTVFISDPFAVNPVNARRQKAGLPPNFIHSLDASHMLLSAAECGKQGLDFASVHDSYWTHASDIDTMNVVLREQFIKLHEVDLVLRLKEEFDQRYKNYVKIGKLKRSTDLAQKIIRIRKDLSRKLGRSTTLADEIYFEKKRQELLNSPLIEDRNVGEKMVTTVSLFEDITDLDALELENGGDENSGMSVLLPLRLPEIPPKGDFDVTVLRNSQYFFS
Kind of data set: native gel or EMSA.

Chain of yeast mitochondrial RNA polymerase (scMtRNAP) WT;MTF1 (yeast mitochondrial transcription factor) (P13433 whole entry, chain 1 of 2, one chain of several, the tested form may be a part): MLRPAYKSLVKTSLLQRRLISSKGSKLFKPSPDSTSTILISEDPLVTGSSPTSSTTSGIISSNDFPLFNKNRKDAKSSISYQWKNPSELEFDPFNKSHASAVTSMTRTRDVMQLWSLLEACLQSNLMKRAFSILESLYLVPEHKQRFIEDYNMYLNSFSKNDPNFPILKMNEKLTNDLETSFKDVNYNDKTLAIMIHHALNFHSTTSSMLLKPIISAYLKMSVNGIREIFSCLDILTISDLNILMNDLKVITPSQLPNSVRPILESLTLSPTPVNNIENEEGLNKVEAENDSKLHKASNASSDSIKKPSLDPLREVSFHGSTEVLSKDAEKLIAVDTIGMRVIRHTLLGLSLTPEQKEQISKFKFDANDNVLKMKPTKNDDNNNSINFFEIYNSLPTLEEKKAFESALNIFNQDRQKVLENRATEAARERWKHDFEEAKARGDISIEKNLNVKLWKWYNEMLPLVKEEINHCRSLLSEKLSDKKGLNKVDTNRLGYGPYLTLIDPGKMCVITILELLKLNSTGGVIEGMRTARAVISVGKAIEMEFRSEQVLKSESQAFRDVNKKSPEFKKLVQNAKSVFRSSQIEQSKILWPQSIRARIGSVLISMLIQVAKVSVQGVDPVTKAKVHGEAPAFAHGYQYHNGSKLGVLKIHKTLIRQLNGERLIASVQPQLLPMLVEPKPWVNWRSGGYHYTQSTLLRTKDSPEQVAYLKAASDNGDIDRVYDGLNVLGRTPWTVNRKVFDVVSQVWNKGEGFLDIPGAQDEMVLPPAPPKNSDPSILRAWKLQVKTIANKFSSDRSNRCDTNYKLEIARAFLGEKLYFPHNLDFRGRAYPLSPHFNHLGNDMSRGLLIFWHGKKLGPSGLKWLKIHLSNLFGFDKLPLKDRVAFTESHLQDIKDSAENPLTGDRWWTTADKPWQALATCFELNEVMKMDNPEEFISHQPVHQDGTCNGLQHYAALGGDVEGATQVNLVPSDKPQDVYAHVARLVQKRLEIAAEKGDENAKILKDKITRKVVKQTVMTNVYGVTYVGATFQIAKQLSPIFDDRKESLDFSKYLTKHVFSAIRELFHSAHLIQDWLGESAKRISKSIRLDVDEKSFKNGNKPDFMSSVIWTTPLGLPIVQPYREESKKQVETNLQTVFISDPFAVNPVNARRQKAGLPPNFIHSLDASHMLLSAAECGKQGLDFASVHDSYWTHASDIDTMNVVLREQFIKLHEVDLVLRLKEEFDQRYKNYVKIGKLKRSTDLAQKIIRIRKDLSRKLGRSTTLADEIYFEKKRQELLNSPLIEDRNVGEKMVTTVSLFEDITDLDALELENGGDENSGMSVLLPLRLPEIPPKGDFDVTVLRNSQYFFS

B1: 33 bp Duplex promoter (dsDNA)
DNA 1: CGCGTAAAACTATTCTTTATTACTTATATCGCG
DNA 2: CGCGATATAAGTAATAAAGAATAGTTTTACGCG
With B1, in data set [1], binding was put at a Kd of 480 nM.

B2: yeast mitochondrial transcription factor MTF1 (natural protein, UniProt P14908 1-341, looked up)
chain: MSVPIPGIKDISKLKFFYGFKYLWNPTVYNKIFDKLDLTKTYKHPEELKVLDLYPGVGIQSAIFYNKYCPRQYSLLEKRSSLYKFLNAKFEGSPLQILKRDPYDWSTYSNLIDEERIFVPEVQSSDHINDKFLTVANVTGEGSEGLIMQWLSCIGNKNWLYRFGKVKMLLWMPSTTARKLLARPGMHSRSKCSVVREAFTDTKLIAISDANELKGFDSQCIEEWDPILFSAAEIWPTKGKPIALVEMDPIDFDFDVDNWDYVTRHLMILKRTPLNTVMDSLGHGGQQYFNSRITDKDLLKKCPIDLTNDEFIYLTKLFMEWPFKPDILMDFVDMYQTEHSG
Consider B2, for which the binding result in data set [2] and in data set [3] was “binds” throughout.

(Values after publication PMC3361065 (Biochemistry, 2012).)
